Source: US20230287376

What was measured:
[1] = system: SNAP-FCE-T7 RNAP fusion (Faustovirus / phage T7); conditions: 5'-triphosphate; soluble fusion
[2] = system: Faustovirus capping enzyme (FCE) (Faustovirus); conditions: 5'-triphosphate; soluble, 37 C, 30 min, SAM, GTP

ppp25mer FAM RNA
activity [1]: > 95 % capping | activity [2]: > 95 % capping
